From patent US20210198368A1 (Novartis, published 2021)

What was measured:
[1] = molecular target: T1, human CLL1 expressed on cancer cell lines HL60 and U937 (human, UniProt Q5QGZ9 1-265); test: cell-based or functional assay
T1 sequence (looked up): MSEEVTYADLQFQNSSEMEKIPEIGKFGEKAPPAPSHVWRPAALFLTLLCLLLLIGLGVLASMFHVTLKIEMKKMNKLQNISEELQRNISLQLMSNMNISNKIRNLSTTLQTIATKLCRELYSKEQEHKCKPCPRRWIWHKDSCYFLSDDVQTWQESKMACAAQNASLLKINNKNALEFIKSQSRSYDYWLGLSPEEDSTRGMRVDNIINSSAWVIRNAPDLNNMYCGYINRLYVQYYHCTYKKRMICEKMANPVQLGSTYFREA

[2] = molecular target: T2, human CLL-1 (human, UniProt Q5QGZ9 65-265, limits assumed); test: ELISA and/or FACS of phage clones after panning on immobilized CLL-1
T2 construct: The construct is not described; also called C-type lectin-like molecule-1; MICL
T2 sequence (looked up): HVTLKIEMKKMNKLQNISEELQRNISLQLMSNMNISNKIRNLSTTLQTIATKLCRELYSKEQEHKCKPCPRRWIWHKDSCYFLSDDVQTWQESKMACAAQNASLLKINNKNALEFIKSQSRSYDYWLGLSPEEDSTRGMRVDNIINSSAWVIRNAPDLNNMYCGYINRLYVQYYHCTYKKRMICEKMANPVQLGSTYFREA

[3] = molecular target: T3, human CLL-1 Fc (human, UniProt Q5QGZ9 65-265, limits assumed); test: SPR (Biacore T200), human CLL-1 Fc captured on an anti-Fc CM5 chip, scFv as analyte, 1:1 binding fit
T3 construct: Captured at 120 RU on an anti-Fc CM5 chip for Biacore; not shown: Fc part of the fusion (captured by an anti-Fc / anti-huFc antibody)
T3 sequence (looked up): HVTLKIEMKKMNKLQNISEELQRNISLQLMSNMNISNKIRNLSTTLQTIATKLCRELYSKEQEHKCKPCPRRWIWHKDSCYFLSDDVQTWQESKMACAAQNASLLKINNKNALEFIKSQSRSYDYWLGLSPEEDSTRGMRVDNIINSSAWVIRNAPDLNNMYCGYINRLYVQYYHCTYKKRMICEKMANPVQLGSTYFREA
Procedure: Next, the affinity for human CLL-1 of a representative number of anti-CLL-1 scFvs was tested by Biacore. Briefly, anti-Fc antibody (Jackson ImmunoReasearch, catalog #109-005-098) was immobilized to a CM5 sensor chip via amine coupling, and human CLL-1 Fc was then captured at a density of 120 RU. ScFv samples were serial diluted 3-fold and injected over the chip at a constant flow rate. Association and dissociation rates of the protein complex were monitored for 270 s and 400 s, respectively. Double referencing was performed against an anti-huFc coated flow cell and a buffer blank and the data was fit using a 1:1 Langmuir or steady state affinity model with the Biacore T200 evaluation software. Binding of clones CLL-1-6, CLL-1-8, CLL-1-9, CLL-1-10, and CLL1-13 to human CLL-1 was confirmed.

B1: CD3 × CLL1_10 (bispecific antibody)
chain 1: QVQLVQSGGGVVQPGRSLRLSCKASGYTFTRYTMHWVRQAPGKGLEWIGYINPSRGYTNYNQKVKDRFTISRDNSKNTAFLQMDSLRPEDTGVYFCARYYDDHYSLDYWGQGTPVTVSSGGGGSGGGKSKKGGSGGGGSDIQMTQSPSSLSASVGDRVTITCSASSSVSYMNWYQQTPGKAPKRWIYDTSKLASGVPSRFSGSGSGTDYTFTISSLQPEDIATYYCQQWSSNPFTFGQGTKLQITGGGGSDKTHTCPPCPAPELLGGPSVFLFPPKPKDTLMISRTPEVTCVVVAVSHEDPEVKFNWYVDGVEVHNAKTKPREEQYNSTYRVVSVLTVLHQDWLNGKEYKCKVSNKALAAPIEKTISKAKGQPREPQVCTLPPSRDELTKNQVSLSCAVKGFYPSDIAVEWESNGQPENNYKTTPPVLDSDGSFFLVSKLTVDKSRWQQGNVFSCSVMHEALHNHYTQKSLSLSPGK
chain 2: QVQLVQSGGGLVQPGGSLRLSCAASGFTFSSYSMNWVRQAPGKGLEWVSYISSSSSTIYYADSVKGRFTISRDNAKNSLYLQMNSLRAEDTAVYYCARDLSVRAIDAFDIWGQGTMVTVSSGGGGSGGGGSGGGGSGGGGSDIVLTQSPSSLSASVGDRVTITCQASQDISNYLNWYQQKPGKAPKLLIYDASNLETGVPSRFSGSGSGTDFTFTISSLQPEDFATYYCQQAYSTPFTFGPGTKVEIKGGGGSGSDKTHTCPPCPAPELLGGPSVFLFPPKPKDTLMISRTPEVTCVVVAVSHEDPEVKFNWYVDGVEVHNAKTKPREEQYNSTYRVVSVLTVLHQDWLNGKEYKCKVSNKALAAPIEKTISKAKGQPREPQVYTLPPCRDELTKNQVSLWCLVKGFYPSDIAVEWESNGQPENNYKTTPPVLDSDGSFFLYSKLTVDKSRWQQGNVFSCSVMHEALHNHYTQKSLSLSPGK
In the case of B1, the “EC50 (nM), Killing HL60 (T-cell mediated killing of the CLL1-positive cancer cell line)” value [1] is reported as 0.27 nM and the “EC50 (nM), NFAT U937 (T-cell activation, Jurkat NFAT luciferase reporter assay)” value [1] is reported as 0.85 nM.

B2: CD3 × CLL1_08 (bispecific antibody)
chain 1: QVQLVQSGGGVVQPGRSLRLSCKASGYTFTRYTMHWVRQAPGKGLEWIGYINPSRGYTNYNQKVKDRFTISRDNSKNTAFLQMDSLRPEDTGVYFCARYYDDHYSLDYWGQGTPVTVSSGGGGSGGGKSKKGGSGGGGSDIQMTQSPSSLSASVGDRVTITCSASSSVSYMNWYQQTPGKAPKRWIYDTSKLASGVPSRFSGSGSGTDYTFTISSLQPEDIATYYCQQWSSNPFTFGQGTKLQITGGGGSDKTHTCPPCPAPELLGGPSVFLFPPKPKDTLMISRTPEVTCVVVAVSHEDPEVKFNWYVDGVEVHNAKTKPREEQYNSTYRVVSVLTVLHQDWLNGKEYKCKVSNKALAAPIEKTISKAKGQPREPQVCTLPPSRDELTKNQVSLSCAVKGFYPSDIAVEWESNGQPENNYKTTPPVLDSDGSFFLVSKLTVDKSRWQQGNVFSCSVMHEALHNHYTQKSLSLSPGK
chain 2: QVQLVESGGGLVQPGGSLRLSCAASGFTFSSYWMSWVRQAPGKGLEWVANINEDGSAKFYVDSVKGRFTISRDNAKNSLYLQMNSLRAEDTAVYFCARDLRSGRYWGQGTLVTVSSGGGGSGGGGSGGGGSEIVLTQSPGTLSLSPGGRATLSCRASQSISGSFLAWYQQKPGQAPRLLIYGASSRATGIPDRFSGSGSGTDFTLTISRLEPEDFAVYYCQQYGSSPPTFGLGTKLEIKGGGGSGSDKTHTCPPCPAPELLGGPSVFLFPPKPKDTLMISRTPEVTCVVVAVSHEDPEVKFNWYVDGVEVHNAKTKPREEQYNSTYRVVSVLTVLHQDWLNGKEYKCKVSNKALAAPIEKTISKAKGQPREPQVYTLPPCRDELTKNQVSLWCLVKGFYPSDIAVEWESNGQPENNYKTTPPVLDSDGSFFLYSKLTVDKSRWQQGNVFSCSVMHEALHNHYTQKSLSLSPGK
For B2, the “EC50 (nM), Killing HL60 (T-cell mediated killing of the CLL1-positive cancer cell line)” value [1] was 0.31 nM and the “EC50 (nM), NFAT U937 (T-cell activation, Jurkat NFAT luciferase reporter assay)” value [1] was 1.26 nM.

B3: CLL-1-1 (scFv)
scFv: EVQLQQSGAEVKKPGSSVKVSCKASGGTFSSYAISWVRQAPGQGLEWMGGIIPIFGTANYAQKFQGRVTITADESTSTAYMELSSLRSEDTAVYYCARDLEMATIMGGYWGQGTLVTVSSGGGGSGGGGSGGGGSQSALTQPASVSGSPGQSITISCTGTSSDVGGYNYVSWYQQHPGKAPKLMIYDVSNRPSGVSNRFSGSKSGNTASLTISGLQAEDEADYYCSSYTSSSTLDVVFGGGTKLTVL
notes: Human scFv from phage display (VH-linker-VL); For Biacore it was made as soluble scFv in HEK293F cells and purified on Ni-NTA beads; a tag is implied but not described; also called 139115
B3: binds [2].

B4: CLL-1-2 (scFv)
scFv: EVQLVESGGGVVQPGGSLRLSCAASGFTFDDYAMHWVRQAPGKGLEWVSLISGDGGSTYYADSVKGRFTISRDNSKNTLYLQMNSLRVEDTAVYYCARVFDSYYMDVWGKGTTVTVSSGGGGSGGGGSGSGGSEIVLTQSPLSLPVTPGQPASISCRSSQSLVYTDGNTYLNWFQQRPGQSPRRLIYKVSNRDSGVPDRFSGSGSDTDFTLKISRVEAEDVGIYYCMQGTHWSFTFGQGTRLEIK
notes: Human scFv from phage display; also called 139116
B4: binds [2].

B5: CLL-1-9 (scFv)
scFv: QVQLVQSGAEVKEPGASVKVSCKAPANTFSDHVMHWVRQAPGQRFEWMGYIHAANGGTHYSQKFQDRVTITRDTSANTVYMDLSSLRSEDTAVYYCARGGYNSDAFDIWGQGTMVTVSSGGGGSGGGGSGGGGSGGGGSDIVMTQSPSSVSASVGDRVTITCRASQDISSWLAWYQQKPGKAPKLLIYAASSLQSGVPSRFNGSGSGTDFTLTISSLQPEDFATYYCQQSYSTPLTFGGGTKVEIK
notes: Soluble scFv from HEK293F cells, purified on Ni-NTA; a tag is implied but not described; also called 146259
For B5, the Kd [3] was 9.1 nM, the koff [3] was 0.00128 s⁻¹ and the kon [3] was 141000 M⁻¹ s⁻¹.

B6: CLL-1-10 (scFv)
scFv: QVQLVQSGGGLVQPGGSLRLSCAASGFTFSSYSMNWVRQAPGKGLEWVSYISSSSSTIYYADSVKGRFTISRDNAKNSLYLQMNSLRAEDTAVYYCARDLSVRAIDAFDIWGQGTMVTVSSGGGGSGGGGSGGGGSGGGGSDIVLTQSPSSLSASVGDRVTITCQASQDISNYLNWYQQKPGKAPKLLIYDASNLETGVPSRFSGSGSGTDFTFTISSLQPEDFATYYCQQAYSTPFTFGPGTKVEIK
notes: Soluble scFv from HEK293F cells, purified on Ni-NTA; a tag is implied but not described; also called 146261
B6 was tested, and the Kd [3] was 15 nM, the koff [3] was 0.00214 s⁻¹ and the kon [3] was 142000 M⁻¹ s⁻¹.

B7: CLL-1-13 (scFv)
scFv: QVQLVQSGAEVKKSGASVKVSCKASGYPFTGYYIQWVRQAPGQGLEWMGWIDPNSGNTGYAQKFQGRVTMTRNTSISTAYMELSSLRSEDTAVYYCASDSYGYYYGMDVWGQGTLVTVSSGGGGSGGGGSGGGGSGGGGSDIQMTQSPSSLSASVGDRVTFTCRASQGISSALAWYQQKPGKPPKLLIYDASSLESGVPSRFSGSGSGTDFTLTISSLQPEDFATYYCQQFNNYPLTFGGGTKVEIK
notes: Soluble scFv from HEK293F cells, purified on Ni-NTA; a tag is implied but not described; also called 146264
B7 showed a Kd [3] of 46.1 nM, a koff [3] of 0.00119 s⁻¹ and a kon [3] of 25700 M⁻¹ s⁻¹.
